Assay results as given in paper PMC5857711.

Molecular target: serotonin receptor 1b (5-HT1b), CFP- or YFP-tagged, for FRET (human) (UniProt P28222)
UniProt P28222, sequence (P28222 whole entry): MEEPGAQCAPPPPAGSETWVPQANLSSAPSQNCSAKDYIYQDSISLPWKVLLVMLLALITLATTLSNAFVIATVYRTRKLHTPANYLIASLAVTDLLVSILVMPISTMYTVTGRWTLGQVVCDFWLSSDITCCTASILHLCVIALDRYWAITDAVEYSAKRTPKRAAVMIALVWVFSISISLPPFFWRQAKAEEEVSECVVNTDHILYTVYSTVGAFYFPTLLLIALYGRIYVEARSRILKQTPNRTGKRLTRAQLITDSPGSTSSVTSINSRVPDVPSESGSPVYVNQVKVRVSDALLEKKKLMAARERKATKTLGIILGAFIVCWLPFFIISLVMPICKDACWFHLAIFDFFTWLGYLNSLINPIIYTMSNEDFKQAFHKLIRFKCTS

Gi/o signaling: reduction of forskolin-induced cAMP (AlphaScreen) by 10 μM 5-HT in HEK293 co-expressing TAAR1 and 5-HT1b (50% for 5-HT1b alone): 40%
Substance: βTAAR1 (TAAR1 with the first nine amino acids of the β2-adrenoreceptor at its N-terminus), CFP- or YFP-tagged, for FRET (from UniProt P07550 1-9)
